Measured values as given in the supplement of paper PMC10567573.

B1: SOAT2 (parent)
chain: SLGKQKVFIIRKSLLDELMEVQHF

Variants of: B1
Assay: protein stability index of a GFP-peptide fusion (GPS, HEK-293T) (PSI 1-6); higher = more stable
Conditions: c terminus: a fixed tail appended
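Further: lentivirally expressed fusions sorted by FACS into six bins by GFP to DsRed ratio, PSI derived from sequencing read proportions per bin multiplied by bin number.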

Protein stability index of substitutions, site by site:
H23: Y 2.64, D 1.67, F 1.87, K 1.41, E 1.9, M 1.69, W 3.71, A 2.24, I 2.72, N 2.52, V 3.33, T 2.07, Q 2.31, S 1.79, R 1.66, C 2.69, G 1.86, P 2.65
K12: P 1.62, I 2.77, M 2.13, L 2.18, S 1.23, N 2.32, R 2.75, H 3.61, W 3.49, D 3.43, Q 2.96, A 2.44, E 2.99, V 3.02, F 3.49, T 3.09
F24: P 2.27, Q 2.75, T 1.8, W 2.78, N 1.9, M 2.2, K 2.4, I 2.9, Y 2.74, R 2.03, C 2.09, A 1.8, S 2.25, E 1.71, D 2.65, L 2.18, G 1.68, H 1.36
D16: T 2.14, C 2.63, F 2.19, M 3.67, Q 2.44, G 2.76, N 3.3, P 2.02, R 4.61, Y 3.13, L 3.27, S 2.09, H 2.86, I 2.98, A 1.7, W 3.25, E 2.39
L15: W 2.68, K 3.07, P 1.56, Q 1.8, G 2.5, D 2.38, H 1.78, M 2.37, T 1.54, V 1.78, N 1.88, A 1.6, E 2.29, Y 1.52, S 2.23, I 2.35, R 2.41, F 3.01, C 2.08
Q22: L 2.24, N 2.22, R 3.46, A 2.4, H 1.91, W 2.77, V 1.49, C 2.01, S 1.68, E 2.74, T 3.05, D 1.91, G 3.24, K 2.35, P 1.79, F 2.2, M 2.09, Y 2.55
L18: Y 2.46, K 2.11, F 1.41, A 1.46, T 1.31, R 1.98, C 1.95, Q 2.21, P 1.38, S 1.25, M 1.7, E 1.8, D 2.01, N 2.54, G 2.62, H 1.85, V 2.5, I 2.71
R11: V 2.19, G 3.02, M 1.53, L 2.96, Q 2.54, I 2.78, A 2.83, T 2.61, K 1.77, P 1.78, D 2.22, Y 3.21, E 2.99, S 2.11, C 2.61, F 1.78, W 2.53, H 2.43
E20: D 1.63, R 2.84, K 2.57, H 1.45, V 1.83, C 2.19, Q 1.62, S 2.48, I 2.03, M 2.66, L 3.13, F 3.11, P 1.45, T 2.8, N 3.04, G 2.85, Y 2.9
I9: P 2.1, K 1.58, S 2.15, V 2.84, Q 1.89, T 1.84, W 3.62, N 2.02, Y 2.85, M 2.21, L 1.21, R 1.8
V21: P 2.16, A 3.1, C 3.18, R 2.92, Y 2.38, N 2, E 1.99, W 2.46, H 2.23, K 2.08, T 1.93, Q 4, F 2.85, M 1.89, D 1.74, S 2.63, I 3.07, G 1.77, L 2
I10: R 1.69, T 1.98, C 2.69, S 1.8, G 1.91, Q 1.87, A 1.9, E 1.47, L 2.38, F 3.02, Y 1.48, W 1.89, M 3.04, N 1.72, P 2.08, D 2.41, V 2.52, K 1.48, H 1.65
L14: T 2, A 2.72, G 2.2, Y 2.03, N 2.26, D 2.19, R 2.64, F 2.52, C 1.85, Q 1.64, H 2.86, S 3.11, M 2.25, I 3.27, V 2.22, E 2, P 2.43, K 1.69
E17: V 3.36, M 2.7, A 3.06, Q 3.16, Y 1.85, N 2.79, L 2.79, W 3.08, C 3.21, G 2.81, F 2.52, D 2.51, S 3.09, T 3.87, I 2.86, P 2.21, H 4.16, R 2.41, K 2.17
M19: C 2.15, D 2.24, N 3.23, L 2.67, G 2.23, A 3.02, H 2.93, Q 2.25, K 2.89, F 3.18, R 1.94, P 2.08, W 2.41, S 2.25, I 2.25, V 1.66, Y 1.36, T 1.74, E 1.69
S13: L 2.24, Y 2.52, K 1.67, V 1.88, C 2.25, A 1.43, D 3.49, F 3.49, E 2.55, W 1.73, N 2.86, I 3.3, Q 1.69, T 2.4, H 2.48, P 1.99, R 2.86, M 2.22, G 1.33
